# T1: RRM1 subunit of ribonucleotide reductase (human (endogenous in RKO), UniProt P23921 1-792)
# T1 sequence (looked up): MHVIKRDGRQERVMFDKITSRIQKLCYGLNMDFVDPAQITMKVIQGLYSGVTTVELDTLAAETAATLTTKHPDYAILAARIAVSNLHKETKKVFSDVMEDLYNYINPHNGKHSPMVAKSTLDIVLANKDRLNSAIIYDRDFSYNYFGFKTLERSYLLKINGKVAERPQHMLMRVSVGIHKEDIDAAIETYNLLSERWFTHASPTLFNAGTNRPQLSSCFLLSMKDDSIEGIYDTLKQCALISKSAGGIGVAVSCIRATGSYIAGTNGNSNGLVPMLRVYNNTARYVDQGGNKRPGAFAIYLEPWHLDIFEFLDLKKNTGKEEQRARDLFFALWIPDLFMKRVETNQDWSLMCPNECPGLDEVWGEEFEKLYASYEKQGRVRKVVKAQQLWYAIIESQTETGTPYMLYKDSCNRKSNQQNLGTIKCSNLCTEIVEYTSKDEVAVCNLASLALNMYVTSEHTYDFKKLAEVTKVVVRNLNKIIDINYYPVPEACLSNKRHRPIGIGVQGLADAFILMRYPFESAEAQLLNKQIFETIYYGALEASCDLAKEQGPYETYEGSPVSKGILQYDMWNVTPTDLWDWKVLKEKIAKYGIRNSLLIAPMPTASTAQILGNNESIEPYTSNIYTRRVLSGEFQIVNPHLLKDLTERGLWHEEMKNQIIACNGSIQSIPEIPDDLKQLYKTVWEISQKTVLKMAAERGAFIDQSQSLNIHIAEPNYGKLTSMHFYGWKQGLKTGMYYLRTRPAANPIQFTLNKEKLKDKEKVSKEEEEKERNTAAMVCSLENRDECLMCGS
# Target: T1, RRM1 subunit of ribonucleotide reductase
# Experiment: co-IP
fold decrease of RRM2 bound to RRM1 in <0.1% O2 against normoxia [fold],fold increase of RRM2B bound to RRM1 in <0.1% O2 against normoxia [fold],Binder
1.8,,"RRM2 subunit of ribonucleotide reductase (natural protein, human (endogenous in RKO), UniProt P31350 1-389, looked up) MLSLRVPLAPITDPQQLQLSPLKGLSLVDKENTPPALSGTRVLASKTARRIFQEPTEPKTKAAAPGVEDEPLLRENPRRFVIFPIEYHDIWQMYKKAEASFWTAEEVDLSKDIQHWESLKPEERYFISHVLAFFAASDGIVNENLVERFSQEVQITEARCFYGFQIAMENIHSEMYSLLIDTYIKDPKEREFLFNAIETMPCVKKKADWALRWIGDKEATYGERVVAFAAVEGIFFSGSFASIFWLKKRGLMPGLTFSNELISRDEGLHCDFACLMFKHLVHKPSEERVREIIINAVRIEQEFLTEALPVKLIGMNCTLMKQYIEFVADRLMLELGFSKVFRVENPFDFMENISLEGKTNFFEKRVGEYQRMGVMSSPTENSFTLDADF"
,5.3,"RRM2B subunit of ribonucleotide reductase (natural protein, human (endogenous in RKO), UniProt Q7LG56 1-351, looked up) MGDPERPEAAGLDQDERSSSDTNESEIKSNEEPLLRKSSRRFVIFPIQYPDIWKMYKQAQASFWTAEEVDLSKDLPHWNKLKADEKYFISHILAFFAASDGIVNENLVERFSQEVQVPEARCFYGFQILIENVHSEMYSLLIDTYIRDPKKREFLFNAIETMPYVKKKADWALRWIADRKSTFGERVVAFAAVEGVFFSGSFAAIFWLKKRGLMPGLTFSNELISRDEGLHCDFACLMFQYLVNKPSEERVREIIVDAVKIEQEFLTEALPVGLIGMNCILMKQYIEFVADRLLVELGFSKVFQAENPFDFMENISLEGKTNFFEKRVSEYQRFAVMAETTDNVFTLDADF"

# — publication PMC5405111 (Molecular Cell, 2017)
